The assay has as its target T1, mouse asialoglycoprotein receptor 1 (ASGR1), FLAG tagged, expressed on CHO-S cells (mouse, UniProt P34927 1-284).
T1 sequence (looked up): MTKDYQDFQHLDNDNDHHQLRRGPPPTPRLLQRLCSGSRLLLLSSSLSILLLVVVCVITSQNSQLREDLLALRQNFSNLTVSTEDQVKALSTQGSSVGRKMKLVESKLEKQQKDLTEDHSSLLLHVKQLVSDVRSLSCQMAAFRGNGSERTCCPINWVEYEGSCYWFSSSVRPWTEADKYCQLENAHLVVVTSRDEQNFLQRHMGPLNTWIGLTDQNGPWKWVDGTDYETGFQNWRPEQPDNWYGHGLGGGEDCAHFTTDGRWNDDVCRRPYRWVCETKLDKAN
Description: flow cytometry on cells.

B1: asialofetuin (ligand)
chain: IPLDPVAGYKEPACDDPDTEQAALAAVDYINKHLPRGYKHTLNQIDSVKVWPRRPTGEVYDIEIDTLETTCHVLDPTPLANCSVRQQTQHAVEGDCDIHVLKQDGQFSVLFTKCDSSPDSAEDVRKLCPDCPLLAPLNDSRVVHAVEVALATFNAESNGSYLQLVEISRAQFVPLPVSVSVEFAVAATDCIAKEVVDPTKCNLLAEKQYGFCKGSVIQKALGGEDVRVTCTLFQTQPVIPQPQPDGAEAEAPSAVPDAAGPTPSAAGPPVASVVVGPSVVAVPLPLHRAHYDLRHTFSGVASVESSSGEAFHVGKTPIVGQPSIPGGPVRLCPGRIRYFKI
modifications: biotinylated (site not stated); desialylated with neuraminidase
The EC50 is the concentration at which the effect is half-maximal. A high value points to a need for much substance. B1 registered an EC50 of 53 nM.

These data come from PMC11275528 (mAbs, 2024).
